Measured values as given in the supplement of paper PMC10567573.

B1: CDC25A (parent)
chain: QLIDPDENKENEAFEFKKPVRPVS

Variants of: B1
Experiment: protein stability index of a GFP-peptide fusion (GPS, HEK-293T) (PSI 1-6); higher = more stable
Conditions: c terminus: a fixed tail appended
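Also: lentivirally expressed fusions sorted by FACS into six bins by GFP to DsRed ratio, PSI derived from sequencing read proportions per bin multiplied by bin number.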

Variant	protein stability index
QLIDPDENKVNEAFEFKKPVRPVS [E10V]	3.36
QLIDPDENKWNEAFEFKKPVRPVS [E10W]	4.02
QLIDPDENKYNEAFEFKKPVRPVS [E10Y]	4.78
QLIDPDENKEAEAFEFKKPVRPVS [N11A]	3.81
QLIDPDENKECEAFEFKKPVRPVS [N11C]	4.23
QLIDPDENKEDEAFEFKKPVRPVS [N11D]	4.68
QLIDPDENKEEEAFEFKKPVRPVS [N11E]	4.22
QLIDPDENKEFEAFEFKKPVRPVS [N11F]	4.02
QLIDPDENKEIEAFEFKKPVRPVS [N11I]	4.53
QLIDPDENKEKEAFEFKKPVRPVS [N11K]	4.56
QLIDPDENKELEAFEFKKPVRPVS [N11L]	4.65
QLIDPDENKEMEAFEFKKPVRPVS [N11M]	4.25
QLIDPDENKEPEAFEFKKPVRPVS [N11P]	4.49
QLIDPDENKEQEAFEFKKPVRPVS [N11Q]	4.32
QLIDPDENKESEAFEFKKPVRPVS [N11S]	4.22
QLIDPDENKETEAFEFKKPVRPVS [N11T]	4.99
QLIDPDENKEVEAFEFKKPVRPVS [N11V]	4.63
QLIDPDENKEWEAFEFKKPVRPVS [N11W]	4.02
QLIDPDENKEYEAFEFKKPVRPVS [N11Y]	4.29
QLIDPDENKENAAFEFKKPVRPVS [E12A]	3.34
QLIDPDENKENCAFEFKKPVRPVS [E12C]	3.55
QLIDPDENKENFAFEFKKPVRPVS [E12F]	2.87
QLIDPDENKENGAFEFKKPVRPVS [E12G]	4.61
QLIDPDENKENHAFEFKKPVRPVS [E12H]	3.21

Variant	protein stability index
QLIDPDENKENIAFEFKKPVRPVS [E12I]	3.34
QLIDPDENKENKAFEFKKPVRPVS [E12K]	3.84
QLIDPDENKENLAFEFKKPVRPVS [E12L]	3.56
QLIDPDENKENMAFEFKKPVRPVS [E12M]	2.78
QLIDPDENKENNAFEFKKPVRPVS [E12N]	3.27
QLIDPDENKENPAFEFKKPVRPVS [E12P]	4.17
QLIDPDENKENQAFEFKKPVRPVS [E12Q]	3.85
QLIDPDENKENRAFEFKKPVRPVS [E12R]	3.1
QLIDPDENKENSAFEFKKPVRPVS [E12S]	4.16
QLIDPDENKENTAFEFKKPVRPVS [E12T]	3.94
QLIDPDENKENVAFEFKKPVRPVS [E12V]	3.36
QLIDPDENKENWAFEFKKPVRPVS [E12W]	3.19
QLIDPDENKENYAFEFKKPVRPVS [E12Y]	3.38
QLIDPDENKENECFEFKKPVRPVS [A13C]	3.52
QLIDPDENKENEDFEFKKPVRPVS [A13D]	4.34
QLIDPDENKENEEFEFKKPVRPVS [A13E]	3.57
QLIDPDENKENEFFEFKKPVRPVS [A13F]	3.02
QLIDPDENKENEGFEFKKPVRPVS [A13G]	3.71
QLIDPDENKENEHFEFKKPVRPVS [A13H]	3.26
QLIDPDENKENEIFEFKKPVRPVS [A13I]	4.23
QLIDPDENKENEKFEFKKPVRPVS [A13K]	3.63
QLIDPDENKENELFEFKKPVRPVS [A13L]	3.73
QLIDPDENKENEMFEFKKPVRPVS [A13M]	4.11
QLIDPDENKENENFEFKKPVRPVS [A13N]	3.77

Variant	protein stability index
QLIDPDENKENEPFEFKKPVRPVS [A13P]	4.25
QLIDPDENKENEQFEFKKPVRPVS [A13Q]	4.02
QLIDPDENKENERFEFKKPVRPVS [A13R]	3.24
QLIDPDENKENESFEFKKPVRPVS [A13S]	3.85
QLIDPDENKENETFEFKKPVRPVS [A13T]	3.9
QLIDPDENKENEVFEFKKPVRPVS [A13V]	2.88
QLIDPDENKENEWFEFKKPVRPVS [A13W]	3.02
QLIDPDENKENEYFEFKKPVRPVS [A13Y]	3.99
QLIDPDENKENEAAEFKKPVRPVS [F14A]	4.68
QLIDPDENKENEACEFKKPVRPVS [F14C]	4.55
QLIDPDENKENEADEFKKPVRPVS [F14D]	5.04
QLIDPDENKENEAEEFKKPVRPVS [F14E]	4.78
QLIDPDENKENEAGEFKKPVRPVS [F14G]	4.53
QLIDPDENKENEAHEFKKPVRPVS [F14H]	4.42
QLIDPDENKENEAIEFKKPVRPVS [F14I]	4.04
QLIDPDENKENEAKEFKKPVRPVS [F14K]	5
QLIDPDENKENEALEFKKPVRPVS [F14L]	4.21
QLIDPDENKENEAMEFKKPVRPVS [F14M]	3.8
QLIDPDENKENEANEFKKPVRPVS [F14N]	3.98
QLIDPDENKENEAPEFKKPVRPVS [F14P]	4.92
QLIDPDENKENEAQEFKKPVRPVS [F14Q]	3.94
QLIDPDENKENEAREFKKPVRPVS [F14R]	3.79
QLIDPDENKENEASEFKKPVRPVS [F14S]	4.5
QLIDPDENKENEATEFKKPVRPVS [F14T]	3.73

Variant	protein stability index
QLIDPDENKENEAVEFKKPVRPVS [F14V]	4.55
QLIDPDENKENEAWEFKKPVRPVS [F14W]	3.2
QLIDPDENKENEAYEFKKPVRPVS [F14Y]	4.12
QLIDPDENKENEAFAFKKPVRPVS [E15A]	4.01
QLIDPDENKENEAFDFKKPVRPVS [E15D]	3.77
QLIDPDENKENEAFFFKKPVRPVS [E15F]	3.41
QLIDPDENKENEAFGFKKPVRPVS [E15G]	2.89
QLIDPDENKENEAFHFKKPVRPVS [E15H]	3.57
QLIDPDENKENEAFIFKKPVRPVS [E15I]	3.7
QLIDPDENKENEAFKFKKPVRPVS [E15K]	4.3
QLIDPDENKENEAFLFKKPVRPVS [E15L]	3.36
QLIDPDENKENEAFMFKKPVRPVS [E15M]	4.37
QLIDPDENKENEAFNFKKPVRPVS [E15N]	3.13
QLIDPDENKENEAFPFKKPVRPVS [E15P]	4.16
QLIDPDENKENEAFQFKKPVRPVS [E15Q]	4.08
QLIDPDENKENEAFRFKKPVRPVS [E15R]	2.37
QLIDPDENKENEAFSFKKPVRPVS [E15S]	4
QLIDPDENKENEAFTFKKPVRPVS [E15T]	3.92
QLIDPDENKENEAFVFKKPVRPVS [E15V]	3.36
QLIDPDENKENEAFWFKKPVRPVS [E15W]	3.54
QLIDPDENKENEAFYFKKPVRPVS [E15Y]	3.02
QLIDPDENKENEAFEAKKPVRPVS [F16A]	4.03
QLIDPDENKENEAFECKKPVRPVS [F16C]	4.6
QLIDPDENKENEAFEDKKPVRPVS [F16D]	4.46

Variant	protein stability index
QLIDPDENKENEAFEEKKPVRPVS [F16E]	4.18
QLIDPDENKENEAFEGKKPVRPVS [F16G]	3.76
QLIDPDENKENEAFEHKKPVRPVS [F16H]	4.56
QLIDPDENKENEAFEIKKPVRPVS [F16I]	3.35
QLIDPDENKENEAFEKKKPVRPVS [F16K]	3.99
QLIDPDENKENEAFELKKPVRPVS [F16L]	4.56
QLIDPDENKENEAFEMKKPVRPVS [F16M]	3.73
QLIDPDENKENEAFENKKPVRPVS [F16N]	4.08
QLIDPDENKENEAFEPKKPVRPVS [F16P]	3.83
QLIDPDENKENEAFEQKKPVRPVS [F16Q]	3.73
QLIDPDENKENEAFERKKPVRPVS [F16R]	4.53
QLIDPDENKENEAFESKKPVRPVS [F16S]	4.21
QLIDPDENKENEAFETKKPVRPVS [F16T]	4.48
QLIDPDENKENEAFEVKKPVRPVS [F16V]	4.39
QLIDPDENKENEAFEWKKPVRPVS [F16W]	4.33
QLIDPDENKENEAFEYKKPVRPVS [F16Y]	3.58
QLIDPDENKENEAFEFAKPVRPVS [K17A]	4.44
QLIDPDENKENEAFEFCKPVRPVS [K17C]	2.78
QLIDPDENKENEAFEFEKPVRPVS [K17E]	3.46
QLIDPDENKENEAFEFFKPVRPVS [K17F]	3.88
QLIDPDENKENEAFEFGKPVRPVS [K17G]	3.91
QLIDPDENKENEAFEFHKPVRPVS [K17H]	3.84
QLIDPDENKENEAFEFIKPVRPVS [K17I]	3.54
QLIDPDENKENEAFEFLKPVRPVS [K17L]	3.36

Variant	protein stability index
QLIDPDENKENEAFEFMKPVRPVS [K17M]	3.03
QLIDPDENKENEAFEFNKPVRPVS [K17N]	3.15
QLIDPDENKENEAFEFPKPVRPVS [K17P]	4.27
QLIDPDENKENEAFEFQKPVRPVS [K17Q]	4.03
QLIDPDENKENEAFEFRKPVRPVS [K17R]	3.78
QLIDPDENKENEAFEFSKPVRPVS [K17S]	3.48
QLIDPDENKENEAFEFTKPVRPVS [K17T]	3.58
QLIDPDENKENEAFEFVKPVRPVS [K17V]	3.98
QLIDPDENKENEAFEFWKPVRPVS [K17W]	3.43
QLIDPDENKENEAFEFYKPVRPVS [K17Y]	3.7
QLIDPDENKENEAFEFKAPVRPVS [K18A]	3.7
QLIDPDENKENEAFEFKCPVRPVS [K18C]	4.1
QLIDPDENKENEAFEFKDPVRPVS [K18D]	4.47
QLIDPDENKENEAFEFKEPVRPVS [K18E]	5.52
QLIDPDENKENEAFEFKFPVRPVS [K18F]	4.33
QLIDPDENKENEAFEFKGPVRPVS [K18G]	4.04
QLIDPDENKENEAFEFKHPVRPVS [K18H]	3.82
QLIDPDENKENEAFEFKIPVRPVS [K18I]	3.97
QLIDPDENKENEAFEFKLPVRPVS [K18L]	4.39
QLIDPDENKENEAFEFKMPVRPVS [K18M]	3.66
QLIDPDENKENEAFEFKNPVRPVS [K18N]	4.4
QLIDPDENKENEAFEFKPPVRPVS [K18P]	4.29
QLIDPDENKENEAFEFKRPVRPVS [K18R]	3.89
QLIDPDENKENEAFEFKSPVRPVS [K18S]	4.55

Variant	protein stability index
QLIDPDENKENEAFEFKTPVRPVS [K18T]	4.33
QLIDPDENKENEAFEFKVPVRPVS [K18V]	4.23
QLIDPDENKENEAFEFKWPVRPVS [K18W]	3.73
QLIDPDENKENEAFEFKYPVRPVS [K18Y]	4
QLIDPDENKENEAFEFKKAVRPVS [P19A]	4.44
QLIDPDENKENEAFEFKKCVRPVS [P19C]	3.6
QLIDPDENKENEAFEFKKFVRPVS [P19F]	4.44
QLIDPDENKENEAFEFKKGVRPVS [P19G]	4.06
QLIDPDENKENEAFEFKKHVRPVS [P19H]	3.95
QLIDPDENKENEAFEFKKIVRPVS [P19I]	4.07
QLIDPDENKENEAFEFKKLVRPVS [P19L]	3.52
QLIDPDENKENEAFEFKKMVRPVS [P19M]	3.74
QLIDPDENKENEAFEFKKNVRPVS [P19N]	4.43
QLIDPDENKENEAFEFKKQVRPVS [P19Q]	4.02
QLIDPDENKENEAFEFKKRVRPVS [P19R]	3.85
QLIDPDENKENEAFEFKKSVRPVS [P19S]	4.09
QLIDPDENKENEAFEFKKTVRPVS [P19T]	4.09
QLIDPDENKENEAFEFKKVVRPVS [P19V]	4.42
QLIDPDENKENEAFEFKKWVRPVS [P19W]	3.87
QLIDPDENKENEAFEFKKYVRPVS [P19Y]	3.07
QLIDPDENKENEAFEFKKPARPVS [V20A]	4.09
QLIDPDENKENEAFEFKKPCRPVS [V20C]	3.61
QLIDPDENKENEAFEFKKPDRPVS [V20D]	4.31
QLIDPDENKENEAFEFKKPERPVS [V20E]	4.04

Variant	protein stability index
QLIDPDENKENEAFEFKKPFRPVS [V20F]	3.71
QLIDPDENKENEAFEFKKPGRPVS [V20G]	3.97
QLIDPDENKENEAFEFKKPHRPVS [V20H]	4.3
QLIDPDENKENEAFEFKKPIRPVS [V20I]	4
QLIDPDENKENEAFEFKKPKRPVS [V20K]	4.67
QLIDPDENKENEAFEFKKPLRPVS [V20L]	2.85
QLIDPDENKENEAFEFKKPMRPVS [V20M]	3.82
QLIDPDENKENEAFEFKKPNRPVS [V20N]	4.63
QLIDPDENKENEAFEFKKPPRPVS [V20P]	4.43
QLIDPDENKENEAFEFKKPQRPVS [V20Q]	3.79
QLIDPDENKENEAFEFKKPRRPVS [V20R]	3.73
QLIDPDENKENEAFEFKKPSRPVS [V20S]	4
QLIDPDENKENEAFEFKKPTRPVS [V20T]	4.54
QLIDPDENKENEAFEFKKPWRPVS [V20W]	3.59
QLIDPDENKENEAFEFKKPVAPVS [R21A]	3.27
QLIDPDENKENEAFEFKKPVCPVS [R21C]	4.34
QLIDPDENKENEAFEFKKPVDPVS [R21D]	4.25
QLIDPDENKENEAFEFKKPVEPVS [R21E]	4.33
QLIDPDENKENEAFEFKKPVFPVS [R21F]	2.74
QLIDPDENKENEAFEFKKPVGPVS [R21G]	4.97
